Measurements as given in patent publication US20180258181A1 (Bayer, published 2018).

Tests used:
[1] = target: T1, human mesothelin (recombinant, soluble, purified; 40 kDa C-terminal polypeptide of the mesothelin precursor) (human, UniProt Q13421 296-598, limits assumed); test: Biacore pairwise binding, mesothelin (50 nM) captured by immobilized MF-T, second antibody 200 nM
T1 construct: also called soluble mesothelin
Procedure: Competitive binding of pairs of antibodies was determined by immobilizing one antibody to the sensor chip, binding soluble mesothelin to this antibody and immediately binding a second antibody to mesothelin. Pairs of antibodies which recognize the same or overlapping epitopes on mesothelin cannot bind simultaneously. All combinations of antibody pairs were tested. Representative data for MF-T are shown (A). Panel B depicts the relative positions of epitopes of seven anti-mesothelin antibodies, in which competition is depicted by overlapping circles.
Epitope grouping experiments were performed using Biacore by monitoring simultaneous binding of pairs of anti-mesothelin antibodies to immobilized mesothelin. Briefly, the first antibody was covalently immobilized to the sensor chip through primary amine coupling using n-hydroxysuccinamide ([…]) and N-ethyl-N′-dimethylaminopropyl carbodiimide (EDC). Unoccupied binding sites on the surface were then blocked with ethanolamide. Soluble mesothelin was captured on the surface via the immobilized antibody, therefore, the epitope of the capture antibody is blocked for all bound mesothelin molecules. A second antibody was immediately passed over the surface to bind to the immobilized mesothelin. Two antibodies recognizing the same or overlapping epitopes cannot bind to the mesothelin, whereas antibodies with distinct epitopes are able to bind. […]

[2] = target: T2, mesothelin on CHO-A9 cells (CHO-K1 stably transfected with the GPI-anchored C-terminal part of mesothelin) (Homo sapiens (Human), UniProt Q13421 287-598, GPI anchor); test: live cell ELISA, IgG1 on CHO-A9 cells
T2 construct: In the immunoblots the protein stood in a denatured cell extract; also called mesothelin-expressing CHO-A9 cells
T2 sequence (Q13421 other isoform, or with tags, fused parts or gaps limits assumed): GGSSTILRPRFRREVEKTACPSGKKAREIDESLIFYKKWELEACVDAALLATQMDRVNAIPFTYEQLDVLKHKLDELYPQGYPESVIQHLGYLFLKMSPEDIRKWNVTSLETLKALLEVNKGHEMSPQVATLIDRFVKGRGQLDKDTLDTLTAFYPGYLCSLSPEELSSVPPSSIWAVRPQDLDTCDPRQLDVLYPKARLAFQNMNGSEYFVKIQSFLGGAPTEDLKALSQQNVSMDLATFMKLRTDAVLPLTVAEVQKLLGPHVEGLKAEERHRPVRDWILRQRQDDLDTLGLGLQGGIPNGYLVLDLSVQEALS

[3] = target: T2, mesothelin on CHO-A9 cells (CHO-K1 …); test: FACS with Scatchard analysis, IgG1 on CHO-A9 cells

T1 sequence (Q13421 other isoform, or with tags, fused parts or gaps limits assumed): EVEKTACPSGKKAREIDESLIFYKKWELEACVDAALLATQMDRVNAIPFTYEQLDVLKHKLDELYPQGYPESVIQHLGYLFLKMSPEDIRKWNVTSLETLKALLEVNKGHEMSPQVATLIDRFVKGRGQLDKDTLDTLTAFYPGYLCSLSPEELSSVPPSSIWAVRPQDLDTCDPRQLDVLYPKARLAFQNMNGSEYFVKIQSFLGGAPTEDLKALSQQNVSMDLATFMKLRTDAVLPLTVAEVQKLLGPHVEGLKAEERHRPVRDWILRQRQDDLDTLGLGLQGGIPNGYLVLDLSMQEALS

B1: MF-428 (antibody, V domains shown)
VH: QVQLVESGGGLVQPGGSLRLSCAASGFTFSTYAMSWVRQAPGKGLEWVSFISGYGSSTYYADSVKGRFTISRDNSKNTLYLQMNSLRAEDTAVYYCARKMYWWSDGFDYWGQGTLVTVSS
VL: DIELTQPPSVSVAPGQTARISCSGDNLRSKYAHWYQQKPGQAPVLVIYSKDNRPSGIPERFSGSNSGNTATLTISGTQAEDEADYYCSSWAHDHKVFGGGTKLTVLG
binding result [1]: binds

B2: MF-T IgG (antibody, V domains shown)
VH: QVELVQSGAEVKKPGESLKISCKGSGYSFTSYWIGWVRQAPGKGLEWMGIIDPGDSRTRYSPSFQGQVTISADKSISTAYLQWSSLKASDTAMYYCARGQLYGGTYMDGWGQGTLVTVSS
VL: DIALTQPASVSGSPGQSITISCTGTSSDIGGYNSVSWYQQHPGKAPKLMIYGVNNRPSGVSNRFSGSKSGNTASLTISGLQAEDEADYYCSSYDIESATPVFGGGTKLTVLG
EC50 [2]: 1.5 nM
EC50 [3]: 0.27 nM

B3: MF-L IgG (antibody, V domains shown)
VH: QVQLVESGGGLVQPGGSLRLSCAASGFTFSDYAMSWVRQAPGKGLEWVSAIMYDSSSTFYADSVKGRFTISRDNSKNTLYLQMNSLRAEDTAVYYCARINYIYKGVHFDYWGQGTLVTVSS
VL: DIVLTQSPATLSLSPGERATLSCRASQIVSGYLAWYQQKPGQAPRLLIYGASSRATGVPARFSGSGSGTDFTLTISSLEPEDFATYYCQQYYNFSFTFGQGTKVEIKR
EC50 [2]: 0.8 nM
EC50 [3]: 0.07 nM

B4: MF-226 IgG (antibody, V domains shown)
VH: QVELVQSGAEVKKPGASVKVSCKASGYTFTGNYINWVRQAPGQGLEWMGIINPHGGDTKYAQKFQGRVTMTRDTSISTAYMELSSLRSEDTAVYYCARWHHGTWIFDYWGQGTLVTVSS
VL: DIVLTQPPSVSGAPGQRVTISCSGSSSNIGSNYVSWYQQLPGTAPKLLIYNDNQRPSGVPDRFSGSKSGTSASLAITGLQSEDEADYYCSTYDRRTFSVFGGGTKLTVLG
EC50 [2]: 0.4 nM
EC50 [3]: 0.15 nM
